Substitutions are numbered along the chain they refer to.
B1: FS17-33-334AA/HelD1.3 mock mAb^2 (bispecific antibody, human IgG1, kappa, L234A L235A)
heavy: QVQLQESGPGLVRPSQTLSLTCTVSGSTFSGYGVNWVRQPPGRGLEWIGMIWGDGNTDYNSALKSRVTMLVDTSKNQFSLRLSSVTAADTAVYYCARERDYRLDYWGQGSLVTVSSASTKGPSVFPLAPSSKSTSGGTAALGCLVKDYFPEPVTVSWNSGALTSGVHTFPAVLQSSGLYSLSSVVTVPSSSLGTQTYICNVNHKPSNTKVDKKVEPKSCDKTHTCPPCPAPEAAGGPSVFLFPPKPKDTLMISRTPEVTCVVVDVSHEDPEVKFNWYVDGVEVHNAKTKPREEQYNSTYRVVSVLTVLHQDWLNGKEYKCKVSNKALPAPIEKTISKAKGQPREPQVYTLPPSRDESGYWVSLTCLVKGFYPSDIAVEWESNGEPQYWAKTTPPVLDSDGSFFLYSKLTVSNWRWQLDDFSCSVMHEALHNHYTQKSLSLSPGK
light: DIQMTQSPASLSASVGETVTITCRASGNIHNYLAWYQQKQGKSPQLLVYNAKTLADGVPSRFSGSGSGTQYSLKINSLQPEDFGSYYCQHFWSTPRTFGGGTKLEIKRTVAAPSVFIFPPSDEQLKSGTASVVCLLNNFYPREAKVQWKVDNALQSGNSQESVTEQDSKDSTYSLSSTLTLSKADYEKHKVYACEVTHQGLSSPVTKSFNRGEC
B2: Fcab FS17-33-289 (designed binder)
chain: TCPPCPAPELLGGPSVFLFPPKPKDTLMISRTPEVTCVVVDVSHEDPEVKFNWYVDGVEVHNAKTKPREEQYNSTYRVVSVLTVLHQDWLNGKEYKCKVSNKALPAPIEKTISKAKGQPREPQVYTLPPSRDESGYWVSLTCLVKGFYPSDIVVEWESNGEPQYWAKTTPPVLDSDGSFFLYSKLTVSNWRWQLDDFSCSVMHEALHNHYTQKSLSLSPGK
B3: Fcab FS17-33-296 (designed binder)
chain: B2 chain with L194V
B4: Fcab FS17-33-334 (designed binder)
chain: B2 chain with V153A
B5: Fcab FS17-33-288 (designed binder)
chain: B2 chain with L194I
B6: FS17-33-449AA/HelD1.3 mock mAb^2 (bispecific antibody, human IgG1, kappa, L234A L235A)
heavy: QVQLQESGPGLVRPSQTLSLTCTVSGSTFSGYGVNWVRQPPGRGLEWIGMIWGDGNTDYNSALKSRVTMLVDTSKNQFSLRLSSVTAADTAVYYCARERDYRLDYWGQGSLVTVSSASTKGPSVFPLAPSSKSTSGGTAALGCLVKDYFPEPVTVSWNSGALTSGVHTFPAVLQSSGLYSLSSVVTVPSSSLGTQTYICNVNHKPSNTKVDKKVEPKSCDKTHTCPPCPAPEAAGGPSVFLFPPKPKDTLMISRTPEVTCVVVDVSHEDPEVKFNWYVDGVEVHNAKTKPREEQYNSTYRVVSVLTVLHQDWLNGKEYKCKVSNKALPAPIEKTISKAKGQPREPQVYTLPPSRDETGYWVSLTCLVKGFYPSDIAVEWESNGEPQYWAKTTPPVLDSDGSFFLYSKLTVSNWRWQLDDVFSCSVMHEALHNHYTQKSLSLSPGK
light: B1 light
B7: FS17-33-451AA/HelD1.3 mock mAb^2 (bispecific antibody, human IgG1, kappa, L234A L235A)
heavy: B6 heavy with T357E
light: B1 light
notes: also called F17-33-451AA/HelD1.3; F17-33-451AA/HELD1.3
B8: FS17-33-288AA/HelD1.3 mock mAb^2 (bispecific antibody, human IgG1, kappa, L234A L235A)
heavy: B1 heavy with A376V, L417I
light: B1 light
notes: also called F17-33-288AA/HelD1.3; F17-33-288AA/HELD1.3
B9: FS17-33-488AA/MSL109 (bispecific antibody, human IgG1, kappa, L234A L235A)
heavy: EEQVLESGGGLVKPGGSLRLSCAASGFTFSPYSVFWVRQAPGKGLEWVSSINSDSTYKYYADSVKGRFTISRDNAENSIFLQMNSLRAEDTAVYYCARDRSYYAFSSGSLSDYYYGLDVWGQGTTVIVSSASTKGPSVFPLAPSSKSTSGGTAALGCLVKDYFPEPVTVSWNSGALTSGVHTFPAVLQSSGLYSLSSVVTVPSSSLGTQTYICNVNHKPSNTKVDKKVEPKSCDKTHTCPPCPAPEAAGGPSVFLFPPKPKDTLMISRTPEVTCVVVDVSHEDPEVKFNWYVDGVEVHNAKTKPREEQYNSTYRVVSVLTVLHQDWLNGKEYKCKVSNKALPAPIEKTISKAKGQPREPQVYTLPPSRDEEGYWVSLTCLVKGFYPSDIAVEWESNGEPQYWAKTTPPVPDSDGTFFLYSKLTVSNWRWQLGDAFSCSVMHEALRNHYTQKSLSLSPGK
light: DIVMTQSPLSLSVTPGEPASISCRSSQSLLHTNGYNYLDWYVQKPGQSPQLLIYLASNRASGVPDRFSGSGSGTDFTLKISRVETEDVGVYYCMQALQIPRTFGQGTKVEIKRTVAAPSVFIFPPSDEQLKSGTASVVCLLNNFYPREAKVQWKVDNALQSGNSQESVTEQDSKDSTYSLSSTLTLSKADYEKHKVYACEVTHQGLSSPVTKSFNRGEC
B10: Fcab FS17-33 with LALA mutation (pTT5-FS17-33AA) (designed binder)
chain: TCPPCPAPEAAGGPSVFLFPPKPKDTLMISRTPEVTCVVVDVSHEDPEVKFNWYVDGVEVHNAKTKPREEQYNSTYRVVSVLTVLHQDWLNGKEYKCKVSNKALPAPIEKTISKAKGQPREPQVYTLPPSRDEQSGYWVSLTCLVKGFYPSDIAVEWESNGQPENNYKTTPPVLDSDGSFFLYSKLTVSNWRWQMGDFSCSVMHEALHNHYTQKSLSLSPGK

target: T1, Monomeric His-tagged human PD-L1 (Acro biosystems PD1-H5229) (human, UniProt Q9NZQ7 19-238); assay: off-rate on PD-L1, mock mAb^2; instrument not given
T1 construct: also called hPD-L1-his; PD-L1-his
T1 sequence (Q9NZQ7 19-238 limits assumed): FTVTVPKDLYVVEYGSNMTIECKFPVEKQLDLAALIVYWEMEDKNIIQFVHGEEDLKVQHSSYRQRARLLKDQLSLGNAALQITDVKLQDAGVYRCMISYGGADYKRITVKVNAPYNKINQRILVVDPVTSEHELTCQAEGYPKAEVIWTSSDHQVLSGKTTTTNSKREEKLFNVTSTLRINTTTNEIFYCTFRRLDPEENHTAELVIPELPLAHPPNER

| Binder | koff [s⁻¹] |
| --- | --- |
| B1 | 0.000372 |

target: T2, Biotinylated hPD-L1-Fc-Avi (human, UniProt Q9NZQ7 19-238); assay: cell-based RBA, blocking of hPD-L1-Fc-Avi binding to HEK293 hPD-1 cells
T2 sequence (Q9NZQ7 19-238 limits assumed): as above
Experimental: (§1) The ability of the Fcabs and mock mAb² to block hPD-1/hPD-L1 and hPD-L1/hCD80 interactions was tested in cell-based Receptor Binding Assays (RBA). […] The mix was incubated for another hour with HEK293 cells overexpressing either hPD-1 or hCD80.

| Binder | EC50 [nM] |
| --- | --- |
| B2 | 10.1 |
| B3 | 9 |
| B4 | 0.99 |
| B5 | 2.8 |

target: T1, Monomeric His-tagged human PD-L1 (Acro …); assay: off-rate, binding to hPD-L1, mock mAb^2; instrument not stated

| Binder | koff [s⁻¹] |
| --- | --- |
| B6 | 0.000311 |
| B1 | 0.000291 |
| B7 | 0.000253 |

target: T3, Cynomolgus PD-L1 expressed on HEK 293 cells (cynomolgus, UniProt Q9NZQ7 19-290 (human entry)); assay: flow cytometry, HEK293 cells overexpressing the target, anti-human Fc 488
T3 construct: also called cell-expressed cynomolgus PD-L1
T3 sequence (Q9NZQ7 other isoform, or with tags, fused parts or gaps limits assumed): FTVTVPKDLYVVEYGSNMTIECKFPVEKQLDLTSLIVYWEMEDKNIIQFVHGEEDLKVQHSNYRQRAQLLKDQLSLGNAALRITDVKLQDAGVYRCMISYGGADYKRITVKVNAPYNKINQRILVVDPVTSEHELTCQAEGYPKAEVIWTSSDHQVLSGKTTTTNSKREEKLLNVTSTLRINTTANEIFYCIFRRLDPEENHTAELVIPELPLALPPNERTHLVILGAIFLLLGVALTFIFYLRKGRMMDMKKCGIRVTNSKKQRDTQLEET
Experimental: (§2) Cell binding assays were performed by incubating Fcabs or mAb² proteins with either control HEK293 cells or HEK293 cells overexpressing hPD-L1 or cynomolgus PD-L1 cells for 1 hour at 4° C. Fcab/mAb binding was subsequently detected using an anti-human Fc 488 detection antibody. Fluorescent signal intensities were measured using a FACS canto.

| Binder | Kd [nM] |
| --- | --- |
| B8 | 7.8 |
| B1 | 0.91 |
| B2 | 0.44 |
| B3 | 0.5 |
| B4 | 0.68 |
| B5 | 2.6 |

target: T4, Human PD-L1 expressed on cells (human, UniProt Q9NZQ7 19-290); assay: as above
T4 construct: also called cell-surface human PD-L1; hPD-L1
T4 sequence (Q9NZQ7 19-290 limits assumed): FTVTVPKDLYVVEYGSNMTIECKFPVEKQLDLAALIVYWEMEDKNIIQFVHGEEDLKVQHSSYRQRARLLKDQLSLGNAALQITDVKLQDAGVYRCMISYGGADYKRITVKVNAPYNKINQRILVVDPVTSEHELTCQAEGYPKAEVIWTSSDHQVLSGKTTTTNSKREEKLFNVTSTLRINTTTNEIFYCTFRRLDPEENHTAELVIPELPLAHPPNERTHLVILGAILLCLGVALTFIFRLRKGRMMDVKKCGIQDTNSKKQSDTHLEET
Experimental: as §2

| Binder | Kd [nM] |
| --- | --- |
| B8 | 15.2 |
| B1 | 8.9 |
| B2 | 1 |
| B3 | 1 |
| B4 | 2.06 |
| B5 | 2.5 |

target: T4, Human PD-L1 expressed on cells; assay: cell-based or functional assay

| Binder | DO11.10 EC50 [nM] |
| --- | --- |
| B9 | 3.25 |

target: T2, Biotinylated hPD-L1-Fc-Avi; assay: cell-based RBA, blocking of hPD-L1-Fc-Avi binding to HEK293 hCD80 cells
Experimental: as §1

| Binder | EC50 [nM] |
| --- | --- |
| B2 | 9.2 |
| B3 | 8.8 |
| B4 | 0.55 |
| B5 | 0.79 |

target: T1, Monomeric His-tagged human PD-L1 (Acro …); assay: SPR Biacore T200 as Example 5.1, anti-Fab capture, monomeric hPD-L1-his
Experimental: Fcab and mAb² binding to human PD-L1 was assessed by both BIAcore and in a cell binding assay. To measure the affinity of the clones to monomeric hPD-L1-his, the mAb² were captured using an anti-Fab antibody coated on a CM5 chip (GE 28-9582-20 AC) and Fcabs were captured using a Protein A chip (GE 29127556) using a Biacore T200 (GE). To minimize mass transport effects, the capture level was minimized to 200RU and a fast flow rate of 75 μl/min was used. […] The analysis of the data was done using the Biacore T200 evaluation software. Curves subtracted against a blank flow cell and a run with no antigen were analysed using a 1:1 fitting model with no bulk analysis and Rmax analysed locally.
The selected CH3 domain sequences were subcloned and expressed in “mock” (MSL109) mAb² format with the LALA mutation in the CH2 domain, as described in Example 4.2.1, for further screening.

| Binder | Kd [nM] | koff [s⁻¹] |
| --- | --- | --- |
| B9 | 0.36 | 0.00036 |

target: T4, Human PD-L1 expressed on cells; assay: cell-based or functional assay; remark: another data set of the same source

| Binder | DO11.10 EC50 [nM] |
| --- | --- |
| B1 | 0.403 |

target: T4, Human PD-L1 expressed on cells; assay: cell-based blocking of biotinylated PD-1 Fc binding to HEK 293 hPD-L1 cells, flow cytometry
Experimental: The blocking activity of the clones produced in Example 2.2.1 was analysed in a cell-based assay using HEK 293 cells overexpressing human PD-L1 (see 1.5 for development of the cell line). Briefly, HEK 293 cells expressing human PD-L1 were seeded at 1×10⁵ cells per well in a V-bottom 96-well plate in PBS. […] The plates were centrifuged at 1500 rpm for 3 minutes at 4° C. to pellet the cells. […] The plates were centrifuged at 1500 rpm for 3 minutes at 4° C. to pellet the cells, supernatant was discarded and the cells were resuspended in PBS. Streptavidin conjugated to Alexa 488 was diluted 1:1000 in PBS and 100 μl was added to the wells for 30 minutes at 4° C. The plates were centrifuged at 1500 rpm for 3 minutes at 4° C. to pellet the cells, supernatant discarded and the cells were resuspended in PBS with DAPI. The plate was read on FACS Canto (BD Bioscience) and the data analysed using FlowJoX.

| Binder | IC50 [nM] |
| --- | --- |
| B10 | 17.7 |

target: T4, Human PD-L1 expressed on cells; assay: cell-based or functional assay; remark: another data set of the same source

| Binder | DO11.10 T cell activation assay EC50 [nM] |
| --- | --- |
| B8 | 0.428 |
| B6 | 0.95 |
| B1 | 0.934 |
| B7 | 1.03 |

target: T5, Monomeric cynomolgus PD-L1 (Acro Biosciences PD1-C52H4) (cynomolgus, UniProt Q9NZQ7 19-238 (human entry)); assay: SPR Biacore T200, Fcab captured on protein A chip, monomeric antigen in flow, 1:1 fit
T5 construct: also called cynomolgus monomeric PD-L1
T5 sequence (Q9NZQ7 other isoform, or with tags, fused parts or gaps limits assumed): as the sequence (Q9NZQ7 19-238 limits assumed) above, with A33T, A34S, S62N, R68Q, Q82R, F173L, T185A, T192I, H215L counted along it

| Binder | Kd [nM] |
| --- | --- |
| B2 | 0.66 |
| B3 | 0.87 |
| B4 | 2.18 |
| B5 | 2.1 |

target: T1, Monomeric His-tagged human PD-L1 (Acro …); assay: as above

| Binder | Kd [nM] |
| --- | --- |
| B2 | 0.54 |
| B3 | 0.73 |
| B4 | 1.93 |
| B5 | 1.6 |

target: T5, Monomeric cynomolgus PD-L1 (Acro …); assay: SPR Biacore T200, mAb^2 captured by anti-Fab on CM5, monomeric antigen in flow, 1:1 fit

| Binder | Kd [nM] |
| --- | --- |
| B8 | 2 |
| B6 | 0.9 |
| B1 | 1.9 |
| B7 | 0.63 |

target: T1, Monomeric His-tagged human PD-L1 (Acro …); assay: as above

| Binder | Kd [nM] |
| --- | --- |
| B8 | 1.43 |
| B6 | 0.49 |
| B1 | 1.45 |
| B7 | 0.45 |

From patent publication US20230406935A1 (F STAR THERAPEUTICS, published 2023)
